Test results from patent publication US7115556B2, “Use of anti-prolactin agents to treat proliferative conditions” (Greenville Hospital System, priority 1998, dated 2006).

What was measured:
[1] = test system: T47-D human breast cancer cells; experiment: 96 well cell proliferation assay with conditioned media (MTS-PMS); format: cell-based
Method: HPRLG129R Conditioned Media. The assay conditions were modified from that described by Ginsburg and Vonderharr (1995, Cancer Res. 55:2591–2595). T47-D cells were trypsinized and passed into 96 well plates in RPMI-1640 media containing 1% DCC-FCS in a volume of 100 μl/well. The optimal cell number/well for each cell line was pre-determined after titration assay. For T47-D cells, 15,000 cells/well were plated. The cells were allowed to settle and adhere overnight (12–18 hours) and subsequently various concentrations of either hPRL, hRPL-G129R, E2 or 4-OH-Tamoxifen in a total volume of 100 μl of culture media were added. Purified hPRL (kindly provided by Dr. Parlow, National Hormone & Pituitary Program, NIH) was used as a positive control for hPRL produced from stable L cells. Cells were incubated for an additional 96 hours at 37° C. in a humidified 5% CO2 incubator. After incubation, MTS-PMS solution (Cell Titer 96 Aqueous kit, Promega Corp.) was added to each well, following the manufacturer's instructions. Plates were read at 490 nm using a BIO-RAD benchmark microplate reader. The experiments were carried out in triplicates and repeated three to six times for each cell line.

[2] = test system: T47-D cells; experiment: Co-culture with L-G129R cells, T47-D; format: cell-based, human; settings: T47-D co-cultured with L-G129R cells
Text: The co-culture experimental set-up provides a sustained presence of biologically active hPRL-G129R, thereby resulting in a maximal response in these tumor cells.

[3] = test system: T-47D human breast cancer cells; experiment: TUNEL assay, T-47D; format: cell-based
Method: (§1) Cell Culture. T-47D cells obtained from ATCC were grown in RPMI 1640 (phenol red free), supplemented with 10% FBS (GIBCO BRL). BT-474 cells were grown in RPMI 1640 medium (phenol red free) supplemented with 10% FBS and ATCC recommended supplements. MCF-7 cells were grown in DMEM medium (phenol red free), supplemented with 10% FBS. The cells were grown at 37° C. in a humid atmosphere in the presence of 5% CO2. The MDA-MB-134 cells were grown in Leibovitz's L-15 medium supplemented with 20% FBS and grown in CO2 free atmosphere. The breast cancer cells were trypsinized (0.02% Trypsin—EDTA) and grown in their respective media (phenol red free) supplemented with 10% CSS (Charcoal stripped serum) for a week. Subsequently the cells were trypsinized again and plated onto an 8 chambered slide system (Lab Tek II) at a confluence of 60–70% per chamber. The next day treatments were performed on the breast cancer cells using their respective media(phenol red free), supplemented with 1% CSS. The MDA-MB-134 VI cells were grown in phenol red containing medium, but with the same serum conditions as the other breast cancer cells.
Terminal deoxynucleotidly transferase mediated dUTP nick end labeling (TUNEL) assay. Nicks of the fragmented DNA are labeled at their 3-OH ends. The fluorescein-labeled dUTP is incorporated at the 3-OH ends by using the enzyme terminal deoxynucleotidyl transferase. After the assigned period of treatment the chambers were dismantled as per the manufacturer's instructions and the TUNEL assay (Apoptosis detection system, Fluorescein- Promega) was performed as per the manufacturer's instructions. The slide was examined under a FITC filter using an Olympus IX 70 microscope system.

[4] = test system: tyrosine phosphorylation of STAT proteins in T47-D cells; experiment: Tyrosine phosphorylation of STAT proteins in T47-D cells (Example 10); format: cell-based, human
Method: Tyrosine Phosphorylation of STAT Proteins in T47-D cells. This assay is designed to examine the effects of HPRL and hPRL-G129R on signal transduction using T47-D cells as model target cells. Briefly, T47-D cells were plated in 12-well plates. After pre-incubation in serum-free medium for 2–3 hours, cells were exposed to various concentrations of hPRL or hPRL-G129R or a combination of hPRL and hPRL-G129R in serum-free medium. The cells were incubated for 15 min at 37° C., washed once with PBS, and lysed in 200 μl lysis buffer (50 mM Tris-HCl, pH 6.8, 1% SDS, 1% β-mecaptoethanol, 0.1M DTT, 5% sucrose, 100 μM sodium orthovanadate, and 0.6% bromophenol blue). Thirty microliters of cell lysate are then subjected to 4–12.5% SDS-PAGE using the Bio-Rad Protein II system. After electrophoresis, the gels were transferred to a Hybond-ECL membrane (Amersham, Ill.) at 100 volts constant voltage for 2 hrs. Blots were incubated in a blocking solution of 4% BSA (Boehringer Mannheim, Ind.) in rinsing buffer (10 mM Tris-HCl pH 7.5, 75 mM NaCl, 0.1% Tween 20, 1 mM EDTA) for 2 hrs and subsequently washed twice with rinsing buffer for 15 min. Blots were incubated with horseradish peroxidase (HRP)-conjugated antiphosphotyrosine antibody PY20 (Amersham, Ill.) at a concentration of 0.1 μg/ml in the blocking solution for 1 hr. […] Blots were then exposed to X-ray film and developed using standard procedures (Kodak, Rochester, N.Y.).

[5] = test system: MDA-MB-134 cells; experiment: TUNEL assay, MDA-MB-134; format: cell-based, human; settings: 250 ng G129R, 24 hours
Method: as §1
Terminal deoxynucleotidly transferase mediated dUTP nick end labeling (TUNEL) assay. Nicks of the fragmented DNA are labeled at their 3-OH ends. The fluorescein-labeled dUTP is incorporated at the 3-OH ends by using the enzyme terminal deoxynucleotidyl transferase. […]

B1: hPRL-G129R: variant of human prolactin having a substitution of the glycine at position 129 with an arginine residue; prolactin receptor antagonist (protein)
chain: LPICPGGAARCQVTLRDLFDRAVVLSHYIHNLSSEMFSEFDKRYTHGRGFITKAINSCHTSSLATPEDKEQAQQMNQKDFLSLIVSILRSWNEPLYHLVTEVRGMQEAPEAILSKAVEIEEQTKRLLERMELIVSQVHPETKENEIYPVWSGLPSLQMADEESRLSAYYNLLHCLRRDSHKIDNYLKLLKCRIIHNNNC
In the case of B1, the “inhibitory effect of combination” value ([1]; 100 nM 4-OH-Tamoxifen in the presence of 100 ng/ml hPRL-G129R) is reported as “approximately 32 % of control”, the “effect on hPRL induced cell proliferation” value ([1]; 1:1 molar ratio hPRL-G129R:hPRL) is reported as “stop the stimulatory effect of hPRL” and the “effect on hPRL induced cell proliferation” value ([1]; 2:1 molar ratio hPRL-G129R:hPRL) is reported as “inhibited cell proliferation”. The “maximum inhibition by a single dose” value ([1]; 4-OH-Tamoxifen at 500 nM, T47-D) was 25 % of control, the “inhibitory potency compared with maximal 500 nM dose of 4-OH-Tamoxifen” value ([1]; hPRL-G129R 150 ng/ml) was “more potent” and the “inhibitory effects of combination compared to maximum dose of either agent” value ([1]; hPRL-G129R applied together with 4-OH-Tamoxifen) was “doubled”. For the same molecule, the “effect on T47-D proliferation, dose response” value ([1]; single dose, four-day incubation) was “dose dependent inhibitory effects”, the “inhibition of cell proliferation in co-culture” value [2] was “Complete inhibition” and the “DNA fragmentation after 2 hours of treatment” value ([3]; 50 ng/ml, 2 hours) was “apparent”. The “apoptosis at physiological concentration” value ([3]; 50 ng/ml, 24 h) was “apoptosis occurs”, the “induction of apoptosis DNA fragmentation” value ([3]; 250 ng G129R, 24 hours) was “induced apoptosis” and the “competition between G129R and hPRL on DNA fragmentation” value ([3]; 1:1 ratio (125 ng/ml each)) was “able to compete with hPRL”. The “apoptosis (DNA fragmentation), dose response” value ([3]; 24 h treatment) was “induced apoptosis in a dose dependent manner”, the “inhibition of STAT protein phosphorylation induced by hPRL” value ([4]; 5:1 ratio (500 ng/ml hPRL-G129R, 100 ng/ml hPRL)) was “completely inhibited” and the “stimulating STAT protein phosphorylation” value ([4]; T47-D cells, hPRL-G129R alone (100 ng/ml, FIG. 13)) was “not active”. For the same molecule, the “block of signal transduction (STAT phosphorylation) induced by hPRL” value ([4]; added together with hPRL) was “block the signal transduction induced by hPRL in a dose dependent manner” and the “induction of apoptosis DNA fragmentation” value [5] was “induced apoptosis”.
